{"source": "patent US20120167239A1", "molecular_target": "GAL4:CfEcR-DEF (yeast; Choristoneura fumiferana)", "assay": "cell-based or functional assay"}
{"substance": "VP16:LmUSP-EF", "values": [{"measurement": "maximum fold induction of luciferase reporter (two-hybrid switch, stable CHO clone 1A2, non-steroidal ligand)", "value": 162, "unit": "fold"}, {"measurement": "maximum fold induction of luciferase reporter (two-hybrid switch, stable CHO clone 1A2, steroid PonA)", "value": 42, "unit": "fold"}]}
